Read-outs that look alike come from different tables or passages of the source.

In assay [1] the target is T1, IL-11 (Cat. 12225-HNCE, Sino Biological Inc.) (UniProt P20809 22-199, limits assumed).
T1 sequence (looked up): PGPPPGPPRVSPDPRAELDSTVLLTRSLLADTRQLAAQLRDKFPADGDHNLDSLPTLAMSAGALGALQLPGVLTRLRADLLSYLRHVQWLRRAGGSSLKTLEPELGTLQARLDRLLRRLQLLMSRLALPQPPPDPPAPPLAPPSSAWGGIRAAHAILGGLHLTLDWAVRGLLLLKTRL
Briefly: competition ELISA, IL-11/IL-11Rα/GP130 complex. As to the method:
The activity of the recombinant murine anti-IL-11 antibodies for blocking the formation of IL-11/IL-11Rα/GP130 complex was analyzed via competition ELISA. IL-11Rα-His (NP_004503.1, Met1-Val363, C-terminus-6-His Tag) was firstly added into ELISA plates to be coated overnight. Next day, samples were prepared as follows. […] After co-incubating and washing, an HRP conjugated anti-human Fc secondary antibody was added to develop the color which was then detected.
(§1) Then, light and heavy chain expression vectors for preparing mutant antibodies were constructed according to the method for preparing the recombinant antibodies provided in Example 4, using the mutant sequences shown in Table 3 which accordingly were linked with human IgG1 constant regions (SEQ ID NO. 13, and SEQ ID NO.14). Subsequently, the light chain and the heavy chain were reasonably matched and co-transfected into eukaryotic cells for transient expression, and then recombination protein samples of the mutant antibodies were obtained through affinity purification. The samples obtained were tested for affinity on Fortebio Octet, according to the method for measuring affinity provided in Example 1. Further, using the protocol provided in Example 3, hz8C8 and its affinity matured mutants were analyzed for their activity for blocking the formation of IL-11/IL-11Rα/GP130 complex.
On the technique in general: ELISA stands for enzyme-linked immunosorbent assay.

In assay [2] the target is T1, IL-11 (Cat. 12225-HNCE, Sino Biological …). As to the kind of experiment: cell-based or functional assay.
For assay [3], the target named is T2, human IL-11 (AAH12506.1, Pro22-Leu199) (human, UniProt P20809 22-199).
T2 construct: The range Pro22-Leu199 counts on AAH12506.1; The Octet runs say only 'human IL-11'; also called hIL-11
T2 chain: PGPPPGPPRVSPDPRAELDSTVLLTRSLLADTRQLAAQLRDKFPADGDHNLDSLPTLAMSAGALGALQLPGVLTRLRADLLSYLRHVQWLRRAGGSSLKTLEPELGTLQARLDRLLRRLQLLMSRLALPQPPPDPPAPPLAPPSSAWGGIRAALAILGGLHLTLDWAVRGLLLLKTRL
Briefly: BLI (Octet), antibody captured, human IL-11 in solution. As to the method: The affinity of the murine antibodies purified from the hybridoma supernatants was determined using an Octet QKe System instrument from Fortebio Inc. with an anti-mouse IgG Fc Capture biosensor to capture the Fc fragments of the antibodies, for which an anti-IL-11 antibody named “3C6-mFc” recombinantly expressed was used at the same concentration as a positive control. Specifically, a hybridoma supernatant was diluted with HBS-EP+ buffer (GE), and was allowed to pass through the surface of AMC probes (Cat: 18-5088, PALL), and so the antibody in the hybridoma supernatant was captured on the surface of the probes; then, human IL-11 diluted in the HBS-EP+ buffer (300 nM) was used as a mobile phase to react with the antibody captured on the surface of the probes. Both the binding and the dissociating were conducted for 300 seconds. When the experiment was finished, data from which response values of blank controls had been deducted was fitted using a 1:1 Langmuir binding model by software, and then kinetic constants for antigen-antibody binding were calculated. Binding signals were detected on the Octet QKe System instrument with Hy5C2, Hy8C8, Hy16B5, Hy18A10, and Hy18H10.
The affinity of hz18A10 and hz8C8 was determined according to the method provided in Example 1 using AHC bioprobes for capturing human Fc fragment instead, with other conditions unchanged. A recombinantly expressed anti-IL-11 antibody 3C6-hFc was used at the same concentration as a positive control.
as §1, with “1.” for “1. Further, using the protocol provided in Example 3, hz8C8 and its affinity matured mutants were analyzed for their activity for blocking the formation of IL-11/IL-11Rα/GP130 complex.”

The target in assay [4] is T2, human IL-11 (AAH12506.1, Pro22-Leu199). Briefly: BLI (Octet), antibody captured, human IL-11 in solution. The gist of the method:
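On a Fortebio Octet QKe System, antibodies in HBS-EP+ buffer were captured on anti-mouse IgG Fc or anti-human Fc biosensors. Human IL-11 was flowed over at 300 nM in the same buffer, with a 300-second association followed by a 300-second dissociation. Blank-subtracted curves were fitted to a 1:1 Langmuir binding model to give kon, koff and Kd.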
For orientation: BLI is a label-free optical method that tracks binding on a fibre tip over time.

B1: hz8C8-VHm1 + hz8C8-VL (antibody, human IgG1, kappa, V domains shown)
VH: EVQLVESGGGLVQPGGSLRLSCAASGFTFSSFGMHWVRQAPGKGLEWVAYITPGSNTIYYADTVKGRFTISRDNAKNSLYLQMNSLRAEDTAVYYCAREYYSYDEGFAYWGQGTLVTVSS
VL: EIVLTQSPATLSLSPGERATLSCSVSSSISSNYLHWYQQKPGQAPRLLIYRTSNLASGIPARFSGSGSGTDFTLTISSLEPEDFAVYYCQQGVDVPFTFGQGTKLEIKR
notes: human IgG1 constant regions
As for B1, the IC50 in assay [1] turned out to be 2.09 µg/mL. Also, the “Blocking activity (IC50), STAT3-luc reporter” value (“Blocking activity (IC50)” for short) in assay [2] turned out to be 2.13 µg/mL. In addition, in assay [3], the Kd is 0.613 nM, the koff was determined as 0.000472 s⁻¹ and the kon came out at 770000 M⁻¹ s⁻¹.

B2: hz8C8-VHm1 + hz8C8-VLm3 (antibody, human IgG1, kappa, V domains shown)
VH: EVQLVESGGGLVQPGGSLRLSCAASGFTFSSFGMHWVRQAPGKGLEWVAYITPGSNTIYYADTVKGRFTISRDNAKNSLYLQMNSLRAEDTAVYYCAREYYSYDEGFAYWGQGTLVTVSS
VL: EIVLTQSPATLSLSPGERATLSCSVSSLISSNYLHWYQQKPGQAPRLLIYRTSNLASGIPARFSGSGSGTDFTLTISSLEPEDFAVYYCQQGVDVPFTFGQGTKLEIKR
notes: human IgG1 constant regions
Turning to B2, in assay [1], the IC50 was found to be 0.943 µg/mL. In assay [2], the “Blocking activity (IC50)” value amounted to 0.125 µg/mL. In assay [3], the equilibrium dissociation constant (Kd) was found to be 0.636 nM, the koff was 0.000496 s⁻¹ and the kon was 780000 M⁻¹ s⁻¹.

B3: hz8C8-VHm1 + hz8C8-VLm1 (antibody, human IgG1, kappa, V domains shown)
VH: EVQLVESGGGLVQPGGSLRLSCAASGFTFSSFGMHWVRQAPGKGLEWVAYITPGSNTIYYADTVKGRFTISRDNAKNSLYLQMNSLRAEDTAVYYCAREYYSYDEGFAYWGQGTLVTVSS
VL: EIVLTQSPATLSLSPGERATLSCSVSSSIPSNYLHWYQQKPGQAPRLLIYRTSNLASGIPARFSGSGSGTDFTLTISSLEPEDFAVYYCQQGVDVPFTFGQGTKLEIKR
notes: human IgG1 constant regions
B3: in assay [1], the IC50 came out at 1.24 µg/mL. Moreover, the “Blocking activity (IC50)” value in assay [2] was 0.804 µg/mL. In assay [3], the Kd amounted to 0.178 nM, the koff amounted to 0.000125 s⁻¹ and the kon turned out to be 705000 M⁻¹ s⁻¹.

B4: hz8C8-VHm1 + hz8C8-VLm4 (antibody, human IgG1, kappa, V domains shown)
VH: EVQLVESGGGLVQPGGSLRLSCAASGFTFSSFGMHWVRQAPGKGLEWVAYITPGSNTIYYADTVKGRFTISRDNAKNSLYLQMNSLRAEDTAVYYCAREYYSYDEGFAYWGQGTLVTVSS
VL: EIVLTQSPATLSLSPGERATLSCSVSDLISSNYLHWYQQKPGQAPRLLIYRTSNLASGIPARFSGSGSGTDFTLTISSLEPEDFAVYYCQQGVDVPFTFGQGTKLEIKR
notes: human IgG1 constant regions
As for B4, in assay [1], the IC50 was 0.846 µg/mL. The “Blocking activity (IC50)” value in assay [2] was determined as 0.098 µg/mL. Further, in assay [3], the Kd amounted to 0.161 nM, the koff amounted to 0.000141 s⁻¹ and the kon turned out to be 874000 M⁻¹ s⁻¹.

B5: hz8C8-VHm1 + hz8C8-VLm2 (antibody, human IgG1, kappa, V domains shown)
VH: EVQLVESGGGLVQPGGSLRLSCAASGFTFSSFGMHWVRQAPGKGLEWVAYITPGSNTIYYADTVKGRFTISRDNAKNSLYLQMNSLRAEDTAVYYCAREYYSYDEGFAYWGQGTLVTVSS
VL: EIVLTQSPATLSLSPGERATLSCSVSSSISSKYLHWYQQKPGQAPRLLIYRTSNLASGIPARFSGSGSGTDFTLTISSLEPEDFAVYYCQQGVDVPFTFGQGTKLEIKR
notes: human IgG1 constant regions
With B5, in assay [1], the IC50 is 1.14 µg/mL. In addition, the “Blocking activity (IC50)” value in assay [2] amounted to 0.038 µg/mL. Moreover, in assay [3], the Kd was found to be 0.388 nM, the koff stood at 0.000229 s⁻¹ and the kon was 590000 M⁻¹ s⁻¹.

B6: hz18A10-VHm15 + hz18A10-VLm19 (antibody, V domains shown)
VH: EVQLVQSGAEVKKPGASVKVSCKASGYTFTHYSMDWVRQAPGQGLEWMGTIYPGNGDTSYNQKFKGRVTMTRDTSTSTVYMELSSLRSEDTAVYYCARGDLYALDYWGQGTLVTVSS
VL: DIQMTQSPSSLSASVGDRVTITCKASQSVYRDVAWYQQKPGKAPKLLIYSASNRYTGVPSRFSGSGSGTDFTFTISSLQPEDIATYYCQHDYSSPYTFGQGTKLEIK
notes: Constant regions not restated for this antibody
In the case of B6, the “Blocking activity (IC50)” value in assay [2] amounted to 0.511 µg/mL. Also, in assay [4], the Kd was found to be 0.346 nM, the koff was determined as 0.000263 s⁻¹ and the kon stood at 760000 M⁻¹ s⁻¹.

B7: hz18A10-VHm18 + hz18A10-VLm19 (antibody, V domains shown)
VH: EVQLVQSGAEVKKPGASVKVSCKASGYTFTHYNMDWVRQAPGQGLEWMGTIYPGEGDTSYNQKFKGRVTMTRDTSTSTVYMELSSLRSEDTAVYYCARGDLYALDYWGQGTLVTVSS
VL: DIQMTQSPSSLSASVGDRVTITCKASQSVYRDVAWYQQKPGKAPKLLIYSASNRYTGVPSRFSGSGSGTDFTFTISSLQPEDIATYYCQHDYSSPYTFGQGTKLEIK
notes: as for B6
With B7, in assay [2], the “Blocking activity (IC50)” value came out at 0.79 µg/mL. In assay [4], this molecule yielded a Kd of 0.313 nM, a koff of 0.000354 s⁻¹ and a kon of 1.13e+06 M⁻¹ s⁻¹.

B8: hz18A10-VHm16 + hz18A10-VLm19 (antibody, V domains shown)
VH: EVQLVQSGAEVKKPGASVKVSCKASGYTFTHYDMDWVRQAPGQGLEWMGTIYPGNADTSYNQKFKGRVTMTRDTSTSTVYMELSSLRSEDTAVYYCARGDLYALDYWGQGTLVTVSS
VL: DIQMTQSPSSLSASVGDRVTITCKASQSVYRDVAWYQQKPGKAPKLLIYSASNRYTGVPSRFSGSGSGTDFTFTISSLQPEDIATYYCQHDYSSPYTFGQGTKLEIK
notes: as for B6
With B8, the “Blocking activity (IC50)” value in assay [2] was determined as 0.034 µg/mL. For the same molecule, in assay [4], the Kd worked out at 0.0956 nM, the koff was 0.00012 s⁻¹ and the kon came to 1.26e+06 M⁻¹ s⁻¹.

B9: hz18A10-VHm17 + hz18A10-VLm19 (antibody, V domains shown)
VH: EVQLVQSGAEVKKPGASVKVSCKASGYTFTHYDMDWVRQAPGQGLEWMGTIYPGEGDTSYNQKFKGRVTMTRDTSTSTVYMELSSLRSEDTAVYYCARGDLYALDYWGQGTLVTVSS
VL: DIQMTQSPSSLSASVGDRVTITCKASQSVYRDVAWYQQKPGKAPKLLIYSASNRYTGVPSRFSGSGSGTDFTFTISSLQPEDIATYYCQHDYSSPYTFGQGTKLEIK
notes: as for B6
For B9, the “Blocking activity (IC50)” value in assay [2] was found to be 0.013 µg/mL. In assay [4], this molecule had a Kd of 0.00708 nM, a koff of 8.23e-06 s⁻¹ and a kon of 1.16e+06 M⁻¹ s⁻¹.

B10: hz18A10-VHm20 + hz18A10-VLm19 (antibody, V domains shown)
VH: EVQLVQSGAEVKKPGASVKVSCKASGYTFTHYNMDWVRQAPGQGLEWMGTIYPGQGDTSYNQKFKGRVTMTRDTSTSTVYMELSSLRSEDTAVYYCARGDLYALDYWGQGTLVTVSS
VL: DIQMTQSPSSLSASVGDRVTITCKASQSVYRDVAWYQQKPGKAPKLLIYSASNRYTGVPSRFSGSGSGTDFTFTISSLQPEDIATYYCQHDYSSPYTFGQGTKLEIK
notes: as for B6
With B10, in assay [2], the “Blocking activity (IC50)” value was 0.061 µg/mL. In assay [4], this molecule returned a Kd of 0.22 nM, a koff of 0.000227 s⁻¹ and a kon of 1.03e+06 M⁻¹ s⁻¹.

The term IC50 denotes the point on the concentration scale where inhibition reaches its midpoint. Usually Kd stands for the constant that tells how readily two partners part at equilibrium. The koff is the first-order rate constant of dissociation. By kon is commonly meant the rate constant with which the complex forms.

Values taken from patent publication US20250197488A1 (MABWELL SHANGHAI BIOSCIENCE, published 2025).
